Test results published in IntAct's records for PubMed 21057455.

B1: Mediator of RNA polymerase II transcription subunit 13 (Saccharomyces cerevisiae), P38931 (parent)
chain: MSSDASTYRLEDVLSSFYRVEKIKKINYHQYISKAQNDQWSIQMEFMLRKQDPKTLVALLSRDLWCFSINDDPVPTPPAIEHKPVSPDKIGTFTADYSKPNLPPHYALFLKALRRKIYINLALGSHNKLIQFGNACISLSGVPNYLVQLEPHLFVNGDLTVSLCAKNMGLVPMKEENLEESFLSKHALYLAPSGIRMHLAPASKQGYLITPPKHTELLLTTLSVSHGINLQNKKNLKWVAVVPDLGHLNGHTPTIASYLTPLLEAKKLVWPLHLIFAQPVADIENSTSGDPSEFHCLQDALDAIDDFIQLKQTAAYRTPGSSGVLSSNIAGTNPLSSDGAYTEQFQHYKNNSISSQPASYHSVQETNKISPKDFSPNFTGIDKLMLSPSDQFAPAFLNTPNNNINENELFNDRKQTTVSNDLENSPLKTELEANGRSLEKVNNSVSKTGSVDTLHNKEGTLEQREQNENLPSDKSDSMVDKELFGEDEDEDLFGDSNKSNSTNESNKSISDEITEDMFEMSDEEENNNNKSINKNNKEMHTDLGKDIPFFPSSEKPNIRTMSGTTKRLNGKRKYLDIPIDEMTLPTSPLYMDPGAPLPVETPRDRRKSVFAPLNFNPIIENNVDNKYKSGGKFSFSPLQKEEALNFDISMADLSSSEEEEDEEENGSSDEDLKSLNVRDDMKPSDNISTNTNIHEPQYINYSSIPSLQDSIIKQENFNSVNDANITSNKEGFNSIWKIPQNDIPQTESPLKTVDSSIQPIESNIKMTLEDNNVTSNPSEFTPNMVNSEISNLPKDKSGIPEFTPADPNLSFESSSSLPFLLRHMPLASIPDIFITPTPVVTISEKEQDILDLIAEQVVTDYNILGNLGIPKIAYRGVKDCQEGLITTTMLQLFSTFDRLNGNDTISKFYNMKQPYVFVKKHHELIKVKHDSQPFIKFLNFRPPNGIKNFKSLLLSSSFKEDCLSFAPTLSQTYINQELGFCELLKLTNEDPPGLMYLKAFDKNKLLLLAAQIVSYCSNNKNSIKNVPPILIILPLDNATLTELVDKANIFQVIKNEVCAKMPNIELYLKVIPMDFIRNVLVTVDQYVNVAISIYNMLPPKSVKFTHIAHTLPEKVNFRTMQQQQMQQQQQQQQQQQNNSTGSSSIIYYDSYIHLAYSRSVDKEWVFAALSDSYGQGSMTKTWYVGNSRGKFDDACNQIWNIALNLASKKFGKICLILTRLNGILPDDELMNWRRLSGRNIHLAVVCVDDNSKISFIDEDKLYPSFKPIYKDTRFGGRMDMTRLYDYEIRDIDQDIHGIVFQHPFPLAHSQHRCAIRSGALIKFKKCDGDTVWDKFAVNLLNCPHSDSTQLLETILEEFRNLAALNVWYGLSDGEDGHIPWHILAVKKMMNTLVHTRVKIANTSAATVHTATSSSIILSDK
partner: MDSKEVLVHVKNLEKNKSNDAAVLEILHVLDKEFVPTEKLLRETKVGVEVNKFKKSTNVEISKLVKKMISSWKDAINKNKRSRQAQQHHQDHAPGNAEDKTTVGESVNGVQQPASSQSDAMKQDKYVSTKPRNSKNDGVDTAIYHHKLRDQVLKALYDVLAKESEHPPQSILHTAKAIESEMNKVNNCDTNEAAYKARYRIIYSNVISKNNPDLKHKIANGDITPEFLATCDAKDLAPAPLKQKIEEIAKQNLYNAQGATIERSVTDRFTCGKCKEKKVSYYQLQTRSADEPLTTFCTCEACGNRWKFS
B2: SAGA complex subunit SPT8 (Saccharomyces cerevisiae), P38915 (parent)
chain: MDEVDDILINNQVVDDEEDDEEMLSGLENDSKQDLEGNDDGGEDEEDDDDDDEDDDDDEDEREDDDEQEDDDGEDDAARMDKTATPTNEHQHDEQKAAAAGAGGAGDSGDAVTKIGSEDVKLSDVDGGVGSREASSSTHEASANGEVYEYYKHMLNAAQIADSYNIYPTAAIPIQTHVNALAVSRGLKYLFLGGSDGYIRKYDLLNTLEGKLSLTILQKHSLAESIQNAGILQSYWENEIPQKKSEMKLSANKTDYEPKVSPVHSLEVQSECLFILSGLQNGGITMQGVRYMEGSIAHYFKGRNGHTQIVNILRLNGQEDRFLSGSWDKRLLEWDLQTGDIVNEFKKSRSELSSLEMRPLYSSVDVSGNVNSGKENENADDDMDSLFGDEDEDEKQDAGNEPVETGDGSNGEENKEQISEESLNIVYDESVFMTSGLNGSVHIWDRRMTQSPALSLERGAGVPPWCLSACWGVDGDHVYAGRRNACVEQFDLKMPSKPIHNLKLPSISGPVSCVKAMPNNKHLLCASRDNIRLYNVEIAVDASNSTTKSSKVPFLIVPGHHGGIISNLYLDPTSRFIISTSGNRGWQGNSTDTTLIYDIDLE
partner: B1 partner
B3: Transcription elongation factor SPT6 (Saccharomyces cerevisiae), P23615 (parent)
chain: MEETGDSKLVPRDEEEIVNDNDETKAPSEEEEGEDVFDSSEEDEDIDEDEDEARKVQEGFIVNDDDENEDPGTSISKKRRKHKRREREEDDRLSEDDLDLLMENAGVERTKASSSSGKFKRLKRVGDEGNAAESESDNVAASRQDSTSKLEDFFSEDEEEEESGLRNGRNNEYGRDEEDHENRNRTADKGGILDELDDFIEDDEFSDEDDETRQRRIQEKKLLREQSIKQPTQITGLSSDKIDEMYDIFGDGHDYDWALEIENEELENGNDNNEAEEEEIDEETGAIKSTKKKISLQDIYDLEDLKKNLMTEGDMKIRKTDIPERYQELRAGITDYGNMSSEDQELERNWIAEKISVDKNFDANYDLTEFKEAIGNAIKFITKENLEVPFIYAYRRNYISSREKDGFLLTEDDLWDIVSLDIEFHSLVNKKDYVQRFYAELHIDDPIVTEYFKNQNTASIAELNSLQDIYDYLEFKYANEINEMFINHTGKTGKKHLKNSSYEKFKASPLYQAVSDIGISAEDVGENISSQHQIHPPVDHPSSKPVEVIESILNANSGDLQVFTSNTKLAIDTVQKYYSLELSKNTKIREKVRSDFSKYYLADVVLTAKGKKEIQKGSLYEDIKYAINRTPMHFRRDPDVFLKMVEAESLNLLSVKLHMSSQAQYIEHLFQIALETTNTSDIAIEWNNFRKLAFNQAMDKIFQDISQEVKDNLTKNCQKLVAKTVRHKFMTKLDQAPFIPNVRDPKIPKILSLTCGQGRFGADAIIAVYVNRKGDFIRDYKIVDNPFDKTNPEKFEDTLDNIIQSCQPNAIGINGPNPKTQKFYKRLQEVLHKKQIVDSRGHTIPIIYVEDEVAIRYQNSERAAQEFPNKPPLVKYCIALARYMHSPLLEYANLTSEEVRSLSIHPHQNLLSSEQLSWALETAFVDIVNLVSVEVNKATDNNYYASALKYISGFGKRKAIDFLQSLQRLNEPLLARQQLITHNILHKTIFMNSAGFLYISWNEKRQKYEDLEHDQLDSTRIHPEDYHLATKVAADALEYDPDTIAEKEEQGTMSEFIELLREDPDRRAKLESLNLESYAEELEKNTGLRKLNNLNTIVLELLDGFEELRNDFHPLQGDEIFQSLTGESEKTFFKGSIIPVRVERFWHNDIICTTNSEVECVVNAQRHAGAQLRRPANEIYEIGKTYPAKVIYIDYANITAEVSLLDHDVKQQYVPISYSKDPSIWDLKQELEDAEEERKLMMAEARAKRTHRVINHPYYFPFNGRQAEDYLRSKERGEFVIRQSSRGDDHLVITWKLDKDLFQHIDIQELEKENPLALGKVLIVDNQKYNDLDQIIVEYLQNKVRLLNEMTSSEKFKSGTKKDVVKFIEDYSRVNPNKSVYYFSLNHDNPGWFYLMFKINANSKLYTWNVKLTNTGYFLVNYNYPSVIQLCNGFKTLLKSNSSKNRMNNYR
partner: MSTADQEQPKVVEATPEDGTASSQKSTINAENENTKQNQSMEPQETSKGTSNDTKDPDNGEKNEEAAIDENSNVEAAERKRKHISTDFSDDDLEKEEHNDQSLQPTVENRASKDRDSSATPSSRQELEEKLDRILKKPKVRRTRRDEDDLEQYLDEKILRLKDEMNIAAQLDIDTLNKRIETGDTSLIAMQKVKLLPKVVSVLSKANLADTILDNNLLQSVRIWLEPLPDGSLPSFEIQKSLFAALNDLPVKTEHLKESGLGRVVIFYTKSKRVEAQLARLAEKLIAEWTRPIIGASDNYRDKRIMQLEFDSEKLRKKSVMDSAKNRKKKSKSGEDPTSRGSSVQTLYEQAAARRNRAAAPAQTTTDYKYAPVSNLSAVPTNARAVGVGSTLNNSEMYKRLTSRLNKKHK

Variants of: B1
Conditions: with tfs2_yeast DST1, P07273

effect of a mutation on the interaction | Variant
decreasing interaction | L483A
decreasing interaction | F484A

Variants of: B2
Conditions: with tfs2_yeast DST1, P07273

effect of a mutation on the interaction | Variant
disrupting interaction | F387A
disrupting interaction | L386A

Variants of: B3
Conditions: with iws1_yeast SPN1, Q06505

effect of a mutation on the interaction | Variant
disrupting interaction | I248A
disrupting interaction | F249A
